{"source": "patent US20250051407A1", "about": "“De novo designed sequence-specific DNA binding proteins” (University of Washington, priority 2023, published 2025)", "molecules": {"B1": {"name": "DBP48: designed DNA-binding protein, SEQ ID NO: 22, DNA target D (protein)", "chain": "MTPEEIAEAKRIGKEVKERRKELGLTQRELAEKLGVSRSTVSDIENGRRLPSEELLKKIKEILGV"}}, "key": {"[1]": {"tested_on": "13 unique dsDNA targets", "assay": "All-by-all yeast surface display screen of DBP design hits", "format": "binding", "how_it_was_run": "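EBY100 yeast displaying designs were induced 16–24 h at 30°C, then labelled with biotinylated dsDNA either with avidity (SAPE premixed at one-quarter of target concentration) or without (target, then SAPE/FITC). Competition ran without avidity at 1 μM biotinylated duplex plus 8 μM unlabelled competitor. Flow cytometry read-out is the SAPE/FITC ratio over gated expressing cells.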"}, "[2]": {"tested_on": "biotinylated target dsDNA with non-biotinylated competitor dsDNA", "assay": "Yeast display competition assay with base-substituted competitor dsDNA", "format": "binding", "conditions": "all possible base mutations at each position of the competitor oligo"}, "[3]": {"tested_on": "synTF-specific cis-regulatory elements (CRE) in HEK293T cells", "assay": "Transcriptional activation by synTFs in HEK293T cells (ENGRAM)", "format": "cell-based", "conditions": "DBP fused to GCN4 dimerization domain and VP64; HEK293T cells expressing PEmax; dependent on spacing between motifs", "how_it_was_run": "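GCN4–VP64 fusions were co-transfected into PEmax-expressing HEK293T cells with barcoded pegRNA recorders driven by CREs of 4 palindromic repeats (spacings 1, 3 or 5 bp), with a TCF-LEF recorder as control (ratio 2:2:2:1). After 2 days, the HEK3 DNA TAPE was sequenced. Activation is given as barcode fold change versus control, in triplicate.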"}}, "data": [{"molecule": "B1", "values": [{"measurement": "Number of the 13 tested DNA target sequences preferentially bound", "setting": "[1]; 1 μM dsDNA with avidity, including designed target sequence", "result": "less than 3"}, {"measurement": "Binding specificity versus design models", "setting": "[1]; all-by-all screen with Rosetta-predicted motifs", "result": "bound with specificity closely consistent with the design models"}, {"measurement": "Binding to initial design target", "setting": "[1]; yeast surface display, 1 μM dsDNA with avidity", "result": "bound weakly"}, {"measurement": "Binding to alternate target sequence", "setting": "[1]; yeast surface display, 1 μM dsDNA with avidity, alternate target H (DBP90), D (DBP48), C (DBP57)", "result": "strongly"}, {"measurement": "DNA binding site specificity", "setting": "[2]", "result": "specificities consistent with the designed sidechain-base interactions"}, {"measurement": "Fold activation of synTFs measured as normalized barcode abundance in the DNA TAPE", "setting": "[3]", "result": "didn't show detectable activation"}]}]}
